The record followed here is US20210198377A1 (XDCEXPLORER SHANGHAI, published 2021).

What all share (test): cell-based or functional assay
For assay [1], the target named is T1, human TPBG (full length, on cells) (human, UniProt Q13641 32-420).
T1 sequence (looked up): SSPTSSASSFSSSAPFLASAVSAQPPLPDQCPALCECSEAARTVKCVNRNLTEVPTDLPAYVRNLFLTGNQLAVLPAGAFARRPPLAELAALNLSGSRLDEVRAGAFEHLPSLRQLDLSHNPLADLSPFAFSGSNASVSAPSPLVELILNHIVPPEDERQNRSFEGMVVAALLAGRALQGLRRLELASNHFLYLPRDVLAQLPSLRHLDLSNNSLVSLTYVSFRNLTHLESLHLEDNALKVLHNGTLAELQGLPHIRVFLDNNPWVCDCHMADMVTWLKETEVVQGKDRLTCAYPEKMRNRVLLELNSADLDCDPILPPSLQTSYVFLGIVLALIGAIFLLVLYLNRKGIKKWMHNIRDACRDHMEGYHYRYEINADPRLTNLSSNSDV

Assay [2] deals with T1, human TPBG (full length, on cells). The source holds these as a separate data set.
The target is the same in assay [3]. This is another data set of the same source.
For assay [4] the target is unchanged. This is another data set of the same source.

Residue numbers refer to the chain shown, from its start. Read-outs that look alike come from different tables or passages of the source. A value given as a limit tells only on which side of the number the result lay.

B1: 12B12C7C3-MMAF (antibody, DAR 8, V domains shown)
VH: DVQLVESGGGLVQPGGSRKLSCAASGFTFSNFGMHWVRQAPEKGLEWVAYISSGSTSFYYADTVKGRFTISRDNPKNTLFLQMTSLRSEDTAMYYCSRTNSLLRGFFDAWGAGTTVTVSS
VL: DIVLTQSPASLAVSLGQRATISCRASQSVSSSSYTYLHWYQQKPGQPPKLLIKSASNLESGVPARFSGTGSGTDFTLNIHPVEEEDTATYYCQHSWEIPLTFGAGTKLELK
modifications: MC-MMAF on cysteines after TCEP reduction, sites not stated
For the molecule B1, the “EC50 of cytotoxicity on TPBG-positive NCI-H1568 cells (CellTiter-Glo)” value (shortened to “EC50 of cytotoxicity”) in assay [1] came to 0.042 nM.

B2: Chimeric Antibody 12B12-DM1 (antibody, human IgG1, DAR about 3, V domains shown)
VH: B1 VH
VL: B1 VL
modifications: SMCC-DM1, sites not stated
As for B2, the “IC50 of cytotoxicity on recombinant 293-hTPBG cells (CellTiter-Glo)” value in assay [2] was 0.154 nM. Moreover, in assay [3], the “IC50 of cytotoxicity on TPBG-positive NCI-H1299 cells (CellTiter-Glo)” value amounted to 10.4 nM and the “IC50 of cytotoxicity on TPBG-positive NCI-H1568 cells (CellTiter-Glo)” value came out at 1.27 nM.

B3: Chimeric Antibody 12B12 (antibody, V domains shown)
VH: B1 VH
VL: B1 VL
B3: the “IC50 of cytotoxicity on recombinant 293-hTPBG cells (CellTiter-Glo)” value in assay [2] was 13.6 nM.

B4: Chimeric Antibody 12B12-MMAE (antibody, human IgG1, DAR about 3, V domains shown)
VH: B1 VH
VL: B1 VL
modifications: MC-VC-PAB-MMAE on cysteines after TCEP reduction, sites not stated
With B4, the “IC50 of cytotoxicity on recombinant 293-hTPBG cells (CellTiter-Glo)” value in assay [2] worked out at 0.033 nM. Moreover, in assay [3], the “IC50 of cytotoxicity on TPBG-positive NCI-H1299 cells (CellTiter-Glo)” value is more than 100 nM and the “IC50 of cytotoxicity on TPBG-positive NCI-H1568 cells (CellTiter-Glo)” value was more than 100 nM.

B5: Chimeric Antibody 39A11-MMAF (antibody, human IgG1, DAR 3, V domains shown)
VH: QVQLQQSGAELMKPGASMRLSCKATGYTFTGYWLEWIKRRPGHGLEWIGEILPGRGSTNYNEKFKGKATFTAETSSNTAYMQLTSLTTEDSAIYYCARGGRDFDNWGQGTTLTVSS
VL: DIQMTQSTSSLSASLGDRVTISCSASQGINNHLNWYQQKPDGTVKLLIYYTSSLHSGVPSRFSGSGSGTDYSLTISNLEPEDIAIYYCQQFSKLPYTFGGGTKVEMK
modifications: MC-MMAF on cysteines after TCEP reduction, sites not stated
Regarding B5, in assay [4], the “IC50 of cytotoxicity on TPBG-positive NCI-H1299 cells (CellTiter-Glo)” value amounted to 4.3 nM.

B6: 39A11G5F2-MMAF (antibody, DAR 8, V domains shown)
VH: B5 VH
VL: B5 VL
modifications: MC-MMAF on cysteines after TCEP reduction, sites not stated
In the case of B6, the “EC50 of cytotoxicity” value in assay [1] was 0.285 nM.

B7: 52C9E9F6-MMAF (antibody, DAR 8, V domains shown)
VH: QVQLQQSGAELMKPGASVKLSCKATGYTFTGYWIEWIKQRPGHGLEWIGEILPGRGSTDYNEKFKGKATFTADTSSNTAYMQLSSLTTEDSAIYYCTRGRLDFTYWGQGTLVTVSA
VL: B5 VL with S7T, N30R, H32Y, I85T, F91Y, L94V, Y96W, V104L, M106I
modifications: MC-MMAF on cysteines after TCEP reduction, sites not stated
Take B7: in assay [1], the “EC50 of cytotoxicity” value is 1.49 nM.

B8: 37H9C5G2-MMAF (antibody, DAR 8, V domains shown)
VH: QVQLQQSDAELVRPGASVKMSCKVSGYTFTDHTIHWMKQRPEQGLEWIGYIYPRDGSGTYNEKFKGKATLTADKSSSTAYMQLNSLTSEDSAVYFCARDGSSHYWYFDVWGTGTTVTVSS
VL: DIQMTQSPASLSASVGETVTITCRASEIIYNYLAWYQQKQGKSPQLLVYNAKTLAEGVPSRFSGSYSGTQFSLNINSLQSEDFGIYYCQHHHDTPLTFGAGTKLDLK
modifications: MC-MMAF on cysteines after TCEP reduction, sites not stated
B8: the “EC50 of cytotoxicity” value in assay [1] came out at 0.12 nM.

B9: Chimeric Antibody 5G4-MMAF (antibody, human IgG1, DAR 3, V domains shown)
VH: EVQLVESGGDLVQPGGSLKLFCAASGFTFSTYGLSWVRQTPDKRLELVATITNNDGSAYYPDSVKGRFTISRDKAKNTLFLQMTSLKSEDTAMYYCARETGFGSSYLFDYWGQGTLVTVSA
VL: NIVMTQTPKFLLVSAGDRVTITCKASQSVSNDVAWYQQKPGQSPKLLIYFATNRYTGVPNRFTGSGYGTEFTFTISSVQAEDLAVYFCQQDYSSPTFGGGTKLEIK
modifications: MC-MMAF on cysteines after TCEP reduction, sites not stated
With B9, in assay [4], the “IC50 of cytotoxicity on TPBG-positive NCI-H1299 cells (CellTiter-Glo)” value came out at 87.3 nM.

B10: 5G4H10G5-MMAF (antibody, DAR 8, V domains shown)
VH: B9 VH
VL: B9 VL
modifications: MC-MMAF on cysteines after TCEP reduction, sites not stated
In the case of B10, the “EC50 of cytotoxicity” value in assay [1] is 0.626 nM.

B11: 106D5G3D10-MMAF (antibody, DAR 8, V domains shown)
VH: EVQLVESGGGLVKPGGSLKLSCAASGFTFSDYGMHWVRQAPEKGLEWVGYISSGTYVVYYADTVKGRFTISRDNAKNTLFLQMTSLRSEDTAIYYCSTYGSNPFDYWGQGTTLTVSS
VL: QLVLTQSPAIMSASPGEKVTITCSATSSVSSMHWFQQKPVTSPKLWIYSTSNLASGVPTRFSGSGSGTSYSLTISRMEAEDAATYYCQQRSGYPPIFTFGSGTKLEIK
modifications: MC-MMAF on cysteines after TCEP reduction, sites not stated
With B11, the “EC50 of cytotoxicity” value in assay [1] was found to be 0.208 nM.

B12: Chimeric Antibody 28D4-MMAE (antibody, human IgG1, DAR about 3, V domains shown)
VH: DVQLVESGGGLVRPGGSLKLSCAASGFTFSNYVMSWARQSPEKRLEWVAEISTGGSHTYYSDTVTGRFTISRDNAKKALYLEMSSLRSEDTAIYYCIMFYYGSSYSMDYWGQGTSVTVSS
VL: DIQMTQSTSSLSASLGDRITISCRASQDIRNYLNWYQQKPDGTVKLLIYHTSRLHSGVPSRFSGSGSGTDYSLTISNLEQEDIATYFCQQGDTLPLTFGAGTRLELK
modifications: MC-VC-PAB-MMAE on cysteines after TCEP reduction, sites not stated
Regarding B12, the “IC50 of cytotoxicity on recombinant 293-hTPBG cells (CellTiter-Glo)” value in assay [2] came out at 0.08 nM. Besides, in assay [3], the “IC50 of cytotoxicity on TPBG-positive NCI-H1299 cells (CellTiter-Glo)” value was 369 nM and the “IC50 of cytotoxicity on TPBG-positive NCI-H1568 cells (CellTiter-Glo)” value was more than 100 nM.

B13: 28D4E6A9-MMAF (antibody, DAR 8, V domains shown)
VH: B12 VH
VL: B12 VL
modifications: MC-MMAF on cysteines after TCEP reduction, sites not stated
With B13, the “EC50 of cytotoxicity” value in assay [1] amounted to 0.038 nM.

B14: Chimeric Antibody 28D4 (antibody, V domains shown)
VH: B12 VH
VL: B12 VL
For the molecule B14, in assay [2], the “IC50 of cytotoxicity on recombinant 293-hTPBG cells (CellTiter-Glo)” value was found to be 1.14 nM.

B15: Chimeric Antibody 28D4-DM1 (antibody, human IgG1, DAR about 3, V domains shown)
VH: B12 VH
VL: B12 VL
modifications: SMCC-DM1, sites not stated
Consider B15, for which the “IC50 of cytotoxicity on recombinant 293-hTPBG cells (CellTiter-Glo)” value in assay [2] amounted to 0.406 nM. Further, in assay [3], the “IC50 of cytotoxicity on TPBG-positive NCI-H1299 cells (CellTiter-Glo)” value is 6.08 nM and the “IC50 of cytotoxicity on TPBG-positive NCI-H1568 cells (CellTiter-Glo)” value is 2.51 nM.

B16: Chimeric Antibody 36A10-MMAF (antibody, human IgG1, DAR 3, V domains shown)
VH: DVQLQESGPGMVKPSQSLSLTCTVTGYSITSGYDWHWIRHFPGNKLEWMGYISYSGNTNYNPSLKSRISITHNTSKNHFFLRLNSVTTEDTATYYCARGYGNWDAMDYWGQGTSVTVSS
VL: DIVMTQSQKFMSTSVGDRVSVTCKASQIVDTNVAWYQQKPGQSPKALISSASYRYSGVPDRFTGSGSGTDFTLTISNVQSEDLAEYFCQQYNSYPLTFGAGTKLELT
modifications: MC-MMAF on cysteines after TCEP reduction, sites not stated
B16: the “IC50 of cytotoxicity on TPBG-positive NCI-H1299 cells (CellTiter-Glo)” value in assay [4] was determined as 0.7 nM.

B17: 36A10D8B12-MMAF (antibody, DAR 8, V domains shown)
VH: B16 VH
VL: B16 VL
modifications: MC-MMAF on cysteines after TCEP reduction, sites not stated
Regarding B17, the “EC50 of cytotoxicity” value in assay [1] turned out to be 0.066 nM.

B18: 103E2E9C2-MMAF (antibody, DAR 8, V domains shown)
VH: EVQLQQSGPVLVKPGASVKMSCEASGYSFIDYYMSWVKQSRGRSLEWIGVFNPYSGEIIYNQKFKGKATLTVDKSSSTAYMELSSLTSEDSGVYSCARLRISYYAIDYWGQGTSVAVSS
VL: ENVLTQSPAIMSASPGEKVTMTCRATSSVSSGHFHWYQQKSGASPKVWIYSTSNLASGVPARFSGSGSGTSFSLTISSVEAEDVATYFCQQYSGYPLTFGGGTKLEIK
modifications: MC-MMAF on cysteines after TCEP reduction, sites not stated
B18: the “EC50 of cytotoxicity” value in assay [1] was 0.135 nM.

B19: 99E12C7H1-MMAF (antibody, DAR 8, V domains shown)
VH: QIQLVQSGPELKKPGETVKISCKPSGYTFTAYGLSWVKQAPGQGFQWMGWINTYSGVPTYTDDFKGRFAFSLETSAGTASLQITNLKNEDTATYFCARSSIPPFEYWGPGTTLTVSS
VL: SFVMTQSPKFLLVSVGDRVTITCKASQSVSNDVAWYQQKPGQPPRVLIYFASNRYTGVPDRFTGSGYGTDFTFTISTVQAEDLALYFCQQDYSSPWTFGGGTKLEIK
modifications: MC-MMAF on cysteines after TCEP reduction, sites not stated
Turning to B19, the “EC50 of cytotoxicity” value in assay [1] is 0.844 nM.
